Assay [1] has as its target receptor of ecotropic murine leukemia virus (UniProt Q09143). Description: cell-based or functional assay.
Assay [2] addresses cell-surface protein expressed on various human cancers (e.g., HeLa and Col-1 cells), antigen of antibody B6.2 (human). Nature of the assay: cell-based or functional assay.

The results in this text go back to patent US6534051.

Chain of UniProt Q09143 (Q09143 whole entry): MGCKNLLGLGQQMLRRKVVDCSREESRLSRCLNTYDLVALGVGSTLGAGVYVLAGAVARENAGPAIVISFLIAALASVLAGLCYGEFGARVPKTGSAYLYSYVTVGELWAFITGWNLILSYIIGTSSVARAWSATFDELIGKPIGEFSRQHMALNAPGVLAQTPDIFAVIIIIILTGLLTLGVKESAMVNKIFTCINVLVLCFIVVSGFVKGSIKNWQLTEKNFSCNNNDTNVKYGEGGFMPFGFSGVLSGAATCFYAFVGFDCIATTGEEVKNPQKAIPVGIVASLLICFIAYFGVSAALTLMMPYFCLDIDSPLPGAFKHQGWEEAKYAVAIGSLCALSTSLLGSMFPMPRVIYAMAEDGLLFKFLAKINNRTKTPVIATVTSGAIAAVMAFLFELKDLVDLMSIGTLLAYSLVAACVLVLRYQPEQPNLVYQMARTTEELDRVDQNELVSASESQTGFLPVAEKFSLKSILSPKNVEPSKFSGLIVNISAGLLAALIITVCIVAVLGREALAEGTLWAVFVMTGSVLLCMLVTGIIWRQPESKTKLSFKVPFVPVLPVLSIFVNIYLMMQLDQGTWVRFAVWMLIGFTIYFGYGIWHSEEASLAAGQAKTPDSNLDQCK

In the case of “SNV-MLV-chiC targeting envelope: almost complete SU peptide of ecotropic murine leukemia virus fused to carboxy terminal part of the SNV envelope (as in pTC4)”, the Virus titer (cfu/ml) on CHTG cells, particles with MLV-SNV-chiC + wt SNV in assay [1] was found to be 1000 cfu/ml.
In the case of “SNV-MLV-chiD targeting envelope: almost complete SU peptide of ecotropic murine leukemia virus fused to carboxy terminal part of the SNV envelope (as in pTC5)”, the Virus titer (cfu/ml) on CHTG cells, particles with MLV-SNV-chiD + wt SNV in assay [1] is 1000 cfu/ml.
For “TC24 targeting envelope: B6.2 single chain antibody fused to carboxy terminal part of the SNV envelope (same amount of SNV envelope as pTC4) (scFv)”, in assay [2], the Titer (CFU/ml) on COL-1, particles with TC24 + wt-env stood at 115 CFU/ml; the Titer (CFU/ml) on HeLa, particles with TC24 + wt-env was 250 CFU/ml; the Titer (CFU/ml) on HeLa, particles with TC24 alone came out at 5 CFU/ml.
“TC25 targeting envelope: B6.2 single chain antibody fused to carboxy terminal part of the SNV envelope (same amount of SNV envelope as pTC5) (scFv)”: in assay [2], the Titer (CFU/ml) on COL-1, particles with TC25 + wt-env was 55 CFU/ml; the Titer (CFU/ml) on HeLa, particles with TC25 + wt-env came to 100 CFU/ml; the Titer (CFU/ml) on HeLa, particles with TC25 alone came to 20 CFU/ml.
In the case of “TC26 targeting envelope: B6.2 single chain antibody fused to the SNV envelope at codon 168 (167 in the legend of FIG. 6) (scFv)”, in assay [2], the Titer (CFU/ml) on COL-1, particles with TC26 + wt-env was 45 CFU/ml; the Titer (CFU/ml) on HeLa, particles with TC26 + wt-env amounted to 90 CFU/ml; the Titer (CFU/ml) on HeLa, particles with TC26 alone was 10 CFU/ml.
